In this assay the target is human TPOR (thrombopoietin receptor, c-Mpl) expressed on BaF3/c-Mpl cells (human) (UniProt P40238). Nature of the assay: cell-based or functional assay.

Consider Romiplostim (Nplate®) (Fc fusion), for which the EC50 (ng/ml), growth of BaF3/c-Mpl cells by CCK-8 assay; Nplate® is 8.78 ng/mL.

(Values after patent US20240391977A1.)
